This data set relates to p33^QIK, quiescence induced kinase, 33-kDa Krsl-related cytoplasmic protein kinase, endogenous in mouse NIH3T3 cytosolic lysate (S20).

Results on one substance are retold here after patent publication US20030170252.

Consider “Protein phosphatase 1 (PP1) (NE BioLabs)”, for which the “kinase activity of p33^QIK in Ab-KQ immune complexes after phosphatase treatment (in-gel kinase assay, MBP substrate)” value is “treatment of activated p33^QIK with protein phosphatase PP1 ... resulted in deactivation of p33^QIK This deactivation was suppressed by phosphatase inhibitors”.
